# Source: the DeepSol protein solubility set
# Test: soluble on expression in E. coli; label from the status in PepcDB or PDB records
row,Sequence,soluble on expression in E. coli
1,MGSDKIHHHHHHMDQEKTPLLDALKGYVEENVIPFHVPGHKQGRGNPELRKYIGSKVLKMDVNGMKELDYIGNPSGVIAEAQHLCAEAFGAEQAYFLVNGTSSGVQAMIMSACNPGNEIIIPRNAHKSTIGAIILSGAIPVYVQPQVNKVLGIATGVSAESIQKAIEEHPQAKAVFIINPSYYGIHSDLKSIVEISHQANMTVLADEAHGAHLYFHPEFSLNAIEAGADMSAVSLHKTGGAMTQSSVLLHQGDRISVDRVKQVLQLSYTSSASYILMLSIDVARKQLATRGQLLLNKTLALARQARQELNDIEDIYAFGKELIGSPGCADFDETKLGIHVRKLGLTGYQIERILRERYKIQIEFSDIYNALAIVSLGDRRENLRKLVAAFREIADERETKDASKWFNIPFCPEMIVTPRDAFYSPKRIVPLELSSGEISGEMIMAYPPGIPVICMGERITQEIIEYIQLLQVEGCELQGATDAGINHIKVLGSALPQASVSKSVSPSRSAYQEIPVYLSP,not soluble
2,MGSDKIHHHHHHMSTTPTTRLILETLLPHLKVAAAYAHFLQPKIAALPAKGEGNNFFSAALTDADVAIQNLVEVVLLGTFPDIRFYGEEYASSNNTKYFRATELGSKGDYLVTLDPIDGTKFYMDGHSNYQIILSILNSDDFEAVIAISPAQNIYFYALRGEGAFKGTLEMSLEACAPLHITSAKPAILLGWAMNSIGHLLKDRYQVIDIAADYSSDIQIPNLNGILTGDLSGAVIKSGKFIDVAALAFIVKEAGWIVTTLDGSTLPPLHTCQNYSLPGLVIATSKSVHQDLLKAVQSLAV,not soluble
3,MTNITASIVLYNNPIDQIRQCIESMQADTRVHVLLVDNSEKKGGYTGLAADNVEILDAPGNVGFGRGHNLVLGRLAALRSEVHLVVNPDIVVSAGCVQAVADVLRQRKDVTLVGPRVVSPDGALYRSCKLLPTPWNLFARRFAPRQLYAAADARYELEAFGYDRELRLHNLSGAFLAFRSEAFTALGGFDPRYFMYLEDVDICRRAAGLGAVIFLPQAEVVHEHGKGSYRSWRLLREHMRSAILYFNRFGWFVDAERRLLNRETLARVNDMRSVVLEHHHHHH,not soluble
4,MSEFWLISAPGDKENLQALERMNNVTSKSNLSHNTKFAIPDFKVGTLDSLVGLSDELGKLDTFAESLIKRMAQSVVEVMEDSKGKAHETLLANGVDLTSFVTHFEWDMAKYPAKQPLVSVVDTLAKQLAQIETDLKSRTAAYSVLKANLENLEKRSTGNLFTRTLSDIVSKEDFVLDSEYLITLLVIVPKSSFAQWQKTYESLSDMVVPRSTKLIAEDNEGGLFTVTLFRKVIEDFKVKAKENKFIVREFYYDEKEIKREREEMTRLLSDKKQQYPTSCVALKKGSATYRDHKVKVAPLGNPARPAAGQTDRDRESEGEGEGPLLRWLKVNFSEAFIAWIHIKALRVFVESVLRYGLPVNFQAVLLQPHKKSATKRLREVLNSVFRHLDEVAAASILDASVEIPGLQLSNQDYFPYVYFHIDLSLLD,soluble
5,MSFIKTFSGKHFYYDKINKDDIVINDIAVSLSNICRFAGHLSHFYSVAQHAVLCSQLVPQEFAFEALMHDATEAYCQDIPAPLKRLLPDYKRMEEKIDAVIREKYGLPPVMSTPVKYADLIMLATERRDLGLDDGSFWPVLEGIPATEMFNVIPLAPGHAYGMFMERFNDLSELRKCA,soluble
6,MANSLRNVNDYDPFKYRPSYFDLEAPTESFALGKFVDAIEVKQMALDAFSESSMVSIATSQLPKTAYTATSFIESEYYSFPYLFNDQKYYWDYFDYKIPAADFAVLELELDLNNQQDQQIKDHFIDPAIKAYKQLGDSTGLFATKPLTEYQNDTHYLLGYPVVPTDHTQLWECKQGAERFSYGYFYSNMARLTKNLRQGDPNAGSKTHIEYSNELLDKDSMDQGIVR,not soluble
7,MGSSHHHHHHSSGLVPRGSHMGEMLERQKKRLPSKAKYLKYTASITETGNHEADSSVIFRPHHSDVTCSNARRAESRTLPQICSCILLDHGRRTRPEVRTGMVSLHGSFKGFPCFGIRRGISHVLPGQKLRGSCDNWKKRQN,soluble
8,GAMEPKASCPAAAPLMERKFHVLVGVTGSVAALKLPLLVSKLLDIPGLEVAVVTTERAKHFYSPQDIPVTLYSDADEWEMWKSRSDPVLHIDLRRWADLLLVAPLDANTLGKVASGICDNLLTCVMRAWDRSKPLLFCPAMNTAMWEHPITAQQVDQLKAFGYVEIPCVAKKLVCGDEGLGAMAEVGTIVDKVKEVLFQHSGFQQS,soluble
9,MSLNYRFRFAPYQRPFKTPLQTHHGLWTVREGIMLSLRDERGRITQGEIVPLPWFGTETLEEAIAFCAAFGGNITSEQIAAIPDALPACQFGFETAQLNLASTENLVSLPPTKFCQLIRRSPTMFQDLQTLLQQGFRTFKLKIALDIPATEIALCQQILETLPADGRLRLDANGGLTLEQVKQWLDWGESQAKLEFIEQPLAPAHFSNLLQLNAEFQTQIALDESVSQVASLEHCYAQGWRGVFVIKLAIAGFPSRLQDVCQTKKLDFVLSTVFETAVGQRALLNFSQDFVQSRRALGMGGTQWIEGHHHHHH,soluble
10,KEQILSSEQLARKMMLELGDKKQEHLVAIYMDTQNRIIEQRTIFIGTVRRSVAEPREILHYACKNMATSLIIIHNHPSGSPKPSESDLSFTKKIKRSCDHLGIVCLDHIIVGKNKYYSFREEADI,not soluble
11,MSLIPLRQNIASMKGYIPGYQPPDIASWIKLNTNENPYPPSPEVVKAILEELGPDGAALRIYPSASSQKLREVAGELYGFDPSWIIMANGSDEVLNNLIRAFAAEGEEIGYVHPSYSYYGTLAEVQGARVRTFGLTGDFRIAGFPERYEGKVFFLTTPNAPLGPSFPLEYIDELARRCAGMLVLDETYAEFAESNALELVRRHENVVVTRTLSKSYSLAGMRIGLAIARPEVIAALDKIRDHYNLDRLAQAACVAALRDQAYLSECCRRIRETREWFTTELRSIGYDVIPSQGNYLFATPPDRDGKRVYDGLYARKVLVRHFSDPLLAHGMRISIGTREEMEQTLAALKEIGEGHHHHHH,soluble
12,MILSDKDIIDYVTSKRIIIKPFNKDFVGPCSYDVTLGDEFIIYDDEVYDLSKELNYKRIKIKNSILVCPLNYNLTEEKINYFKEKYNVDYVVEGGVLGTTNEYIELPNDISAQYQGRSSLGRVFLTSHQTAGWIDAGFKGKITLQIVAFDKPVILYKNQRIGQLIFSKLLSPADVGYSERKTSKYAYQKSVMPSLIHLDNHKKD,soluble
13,MGSDKIHHHHHHMTAQSSHMLVLQSTVTSAFKTIASEKQGLEALEEALLGYLSSAFQAAVQTIRNANGHVVITGLGKSGHIGAKIAATLASTGTPAFFVHAAEANHGDLGMIGSDDVILALSWSGETSELSGIINHAARFRTPLIAMTSGEHSVLGRQADIVLLLPKIEEACPHGLAPTTSTIMQLAMGDALAVALLEMRGFTATDFKIYHPGGSLGASLKYVRDIMHQGESIPLVAQGTAMAKAMSVLVEKHFGCVGVVNQEGELIGIVTDGDLARNIHVNLSKFNVDELMTKDPKIVEPNTLVGAATAFINEHHIGAFFVVENKKPIGIVHFHDLLRIGAA,not soluble
14,MSTINQKLSDNFREAWQKQNLEVNLEEVIEKWELTKYVKDNFICPEVNISTLPSYSFVLKFMFKLKKPYISLDENDFYIIDNPLRKDKVLNLPFVAPSSWKGSLRNSLWQLNYDYENDKIRRIFGNERSPNSEDIVLRMGRLYFFPTFFSKKSLEIINPHNRESRVGTVPILMESVPQDTTGYFTLIYVPFDLIGCEENEIKKQVACDIQLISKGLKSMFTYYGFGAKTSSGYGTSYEDITDGTITLRVKGIEVSLKDIDEVKPPAEGYSKYLNEDGSVKEEFKGSGKYGLLSDKEYYKIKNQLEGSRNEYRDFRQWYGLNGEKWQKHLNSFKYPKPEWPTWNFGNFFQLIEVSKNIATSLELSGAHNECMAGDPLEHHHHHH,not soluble
15,MSLNSNTEKRIALISVHGDPAIEIGKEEAGGQNVYVREVGKALAQLGWQVDMFSRKVSPEQELIVHHSPLCRTIRLTAGPEEFVPRDNGFKYLPEFVQQLLRFQKENNVNYPLVHTNYWLSSWVGMQLKAIQGSKQVHTYHSLGAVKYKSIDTIPLVATKRLSVEKQVLETAERIVATSPQEQQHMRSLVSTKGYIDIVPCGTDIHRFGSIARQAARAELGIDQEAKVVLYVGRFDQRKGIETLVRAMNESQLRDTNKLKLIIGGGSTPGNSDGRERDRIEAIVQELGMTEMTSFPGRLSQDVLPAYYAAADVCVVPSHYEPFGLVAIEAMASGTPVVASDVGGLQFTVVSEKTGLLVPPKDIAAFNIAIDRILMNPQWRDELGLAARKHVTHKFGWEGVASQLDGIYTQLLTQQVKEPALVTKEGHHHHHH,soluble
16,MNEQPAACRIKVEALGAGFAPAAEQWAERLGLALQVDEAEFALQVGEQGLQLQQLGPDAPGPVRVDFVEGGAAHRRLYGGGSGQMIAKAVGVAQGVRPRVLDATAGLGKDGFVLATLGCEMSLIERQPLIGALLEDGLARAAQDAEVGPIVARMHLLKGNSIELMRNWQGEPPQVIYLDPMFPHREKSALVKKEMRLFRPLVGDDNDAPALLAAALALASHRVVVKRPRKAPCIEGPKPSHGLEGKSSRYDIYPKKALKALEHHHHHH,not soluble
17,SASLDRVKVLVLGDSGVGKSSLVHLLCQNQVLGNPSWTVGCSVDVRVHDYREGTPEEKAFYIELWDVGGSVGSASSVKSTRAVFYNSVNGIILVHDLTNKKSSQNLYRWSLEALSKDSSPTGIIVSNGDYDREQFAENAVPLLLIGTKFDQIPENKRNDVLTRTAFLSEDFNAEEINLDCTNPRYLAAGSSNAVKLSRFFDKVIEKRYFTRDPSQMQSFTDRRRFNFKSLHSD,soluble
18,SNRLDGKVAIITGGTLGIGLAIATKFVEEGAKVMITDRHSDVGEKAAKSVGTPDQIQFFQHDSSDEDGWTKLFDATEKAFGPVSTLVNNAGIAVNKSVEETTTAEWRKLLAVNLDGVFFGTRLGIQRMKNKGLGASIINMSSIEGFVGDPSLGAYNASKGAVRIMSKSAALDCALKDYDVRVNTVHPGYIKTPLVDDLPGAEEAMSQRTKTPMGHIGEPNDIAYICVYLASNESKFATGSEFVVDGGYTAQ,soluble
19,MSLRIAIIITQKTNDLHATVPCFLWRKARYAVDLISAEAKASIMLEMGIHVRCDNTLSKTNFNQYTAAFIPHGNTTRLVEIDKLRKDLEKFVYKPKGPMRWLFSSGNGACVLKEFDLIAPDQLVTVQNEKEMVKLLGKNFIKQPVHVDKNIISCANSCGLTKFSFKVIEELSGIELARKTANLVDHIYKGEGHHHHHH,soluble
20,MATRLLRTNFIRRSYRLPAFSPVGPPTVTASTAVVPEILSFGQQAPEPPLHHPKPTEQSHDGLDLSDQARLFSSIPTSDLLRSTAVLHAAAIGPMVDLGTWVMSSKLMDASVTRGMVLGLVKSTFYDHFCAGEDADAAAERVRSVYEATGLKGMLVYGVEHADDAVSCDDNMQQFIRTIEAAKSLPTSHFSSVVVKITAICPISLLKRVSDLLRWEYKSPNFKLSWKLKSFPVFSESSPLYHTNSEPEPLTAEEERELEAAHGRIQEICRKCQESNVPLLIDAEDTILQPAIDYMAYSSAIMFNADKDRPIVYNTIQAYLRDAGERLHLAVQNAEKENVPMGFKLVRGAYMSSEASLADSLGCKSPVHDTIQDTHSCYNDCMTFLMEKASNGSGFGVVLATHNADSGRLASRKASDLGIDKQNGKIEFAQLYGMSDALSFGLKRAGFNVSKYMPFGPVATAIPYLLRRAYENRGMMATGAHDRQLMRMELKRRLIAGIA,not soluble
